Experimental data reported in paper PMC5108039, “Functional and Structural Characterization of a Novel HLA-DRB1*04:01-Restricted α-Enolase T Cell Epitope in Rheumatoid Arthritis” (Frontiers in Immunology, 2016).
Like-named read-outs stand apart in the source and are kept apart here. Square brackets hold non-standard residues; d marks the D form. Ends that are not written are not given here. Peptide text beside a SMILES is read from it. Cit = NC(=O)NCCC[C@H](N)C(=O)O

Experiments:
HLA-DRB1*04:04 = HLA-DRB1*04:04 (Homo sapiens, UniProt P01903+P01911, A100R/A169T/F76Y/I96L/K127E/L162R/M171V/N62H/P40V/Q125Y/R42H/S133A/S149N/S66Y/V209L/W38E); experiment: Competition peptide-binding assay, HLA-DRB1*04:04
Experimental: Stepwise binding analysis of 15-mer peptides derived from both native and citrullinated α-enolase to HLA-DRB1*01, *04:01, and *04:04 was performed using the ProImmune Class II Reveal assay (ProImmune, Oxford, UK). Relevant peptides were thereafter synthesized by GenScript (Piscataway, NJ, USA) and used for competition peptide-binding assays. […] Finally, peptide-binding affinity to the three different HLA alleles was assessed in direct binding assays in which N-terminally biotinylated epitopes (GenScript, Piscataway, NJ, USA) were incubated at concentrations from 5 to 0.05 μM with plate-bound relevant HLA-DRB1 molecules in the absence of a competitor peptide ([22]). The inflection point of the binding curve of a known binding epitope was used as a cutoff to separate weakly binding epitopes from background. […]

HLA-DRB1*01:01 = HLA-DRB1*01:01 (Homo sapiens, UniProt P01903+P01911, A100R/D57E/F55L/F60I/F76Y/I96L/L162R/M171V/P40L/Q125E/R42F/V115G/Y59C); experiment: Competition peptide-binding assay, HLA-DRB1*01:01
Experimental: Stepwise binding analysis of 15-mer peptides derived from both native and citrullinated α-enolase to HLA-DRB1*01, *04:01, and *04:04 was performed using the ProImmune Class II Reveal assay (ProImmune, Oxford, UK). Relevant peptides were thereafter synthesized by GenScript (Piscataway, NJ, USA) and used for competition peptide-binding assays. […] Finally, peptide-binding affinity to the three different HLA alleles was assessed in direct binding assays in which N-terminally biotinylated epitopes (GenScript, Piscataway, NJ, USA) were incubated at concentrations from 5 to 0.05 μM with plate-bound relevant HLA-DRB1 molecules in the absence of a competitor peptide ([22]). The inflection point of the binding curve of a known binding epitope was used as a cutoff to separate weakly binding epitopes from background.
We decided to make use of HLA-DRB1*01:01 as a representative model for HLA-DRB1*01.

HLA-DRB1*04:01 = HLA-DRB1*04:01 (Homo sapiens, UniProt P01903+P01911, A100K/A169T/F76Y/I96L/K127E/L162R/M171V/N62H/P40V/Q125Y/R42H/S133A/S149N/S66Y/V115G/V209L/W38E); experiment: biochemical
[1] = target: HLA-DRB1*01:01 (plate-bound, peptide-binding assays) (human); experiment: competition peptide-binding assay on plates
[2] = target: HLA-DRB1*04:01 (plate-bound, peptide-binding assays) (human); experiment: competition peptide-binding assay on plates
[3] = target: HLA-DRB1*04:04 (plate-bound, peptide-binding assays) (human); experiment: competition peptide-binding assay on plates
[4] = competition with 0.02 μM biotinylated GAD65 270–285, plate-bound HLA-DRB1*04:04, increasing peptide concentrations, read-out: IC50 *04:04
[5] = competition with 0.02 μM biotinylated HA306–318, plate-bound HLA-DRB1*01:01, increasing peptide concentrations, read-out: IC50 *01:01

Molecule	IC50 (HLA-DRB1*04:04; [4])	IC50 (HLA-DRB1*01:01; [5])	IC50 [1]	IC50 [2]	IC50 [3]	further results
CC[C@H](C)[C@H](NC(=O)[C@@H](N)C(C)C)C(=O)NCC(=O)N[C@@H](CCSC)C(=O)N[C@@H](CC(=O)O)C(=O)N[C@H](C(=O)N[C@@H](C)C(=O)N[C@@H](C)C(=O)N[C@@H](CO)C(=O)N[C@@H](CCC(=O)O)C(=O)N[C@@H](Cc1ccccc1)C(=O)N[C@@H](Cc1ccccc1)C(=O)N[C@@H](CCCNC(=N)N)C(=O)N[C@@H](CO)C(=O)NCC(=O)O)C(C)C [compound 241] (H-VIGMDVAASEFFRSG-OH)	0.5 µM	35 µM				IC50 (HLA-DRB1*04:01): 2 µM
α-enolase peptide Cit11 (residues 11–25), citrullinated			25 µM	2.2 µM	1.7 µM	
CC[C@H](C)[C@H](NC(=O)[C@H](CCCNC(N)=O)NC(=O)[C@@H](N)CCCCN)C(=O)N[C@@H](C)C(=O)N[C@@H](CCCCN)C(=O)N[C@@H](C)C(=O)N[C@H](C(=O)N[C@@H](CC(N)=O)C(=O)N[C@@H](CCC(=O)O)C(=O)N[C@@H](CCCCN)C(=O)N[C@@H](CO)C(=O)N[C@@H](CS)C(=O)N[C@@H](CC(N)=O)C(=O)N[C@@H](CS)C(=O)N[C@@H](CC(C)C)C(=O)O)C(C)C [cit326] (H-K[Cit]IAKAVNEKSCNCL-OH)	0.7 µM	> 50 µM				
CC(C)C[C@H](NC(=O)CNC(=O)[C@H](CCCCN)NC(=O)[C@H](CO)NC(=O)[C@@H](N)[C@@H](C)O)C(=O)N[C@@H](Cc1ccccc1)C(=O)N[C@@H](CCCNC(=N)N)C(=O)N[C@@H](C)C(=O)N[C@@H](C)C(=O)N[C@H](C(=O)N1CCC[C@H]1C(=O)N[C@@H](CO)C(=O)NCC(=O)N[C@@H](C)C(=O)N[C@@H](CO)C(=O)O)C(C)C [peptide 26] (H-TSKGLFRAAVPSGAS-OH)	0.5 µM	1.4 µM				IC50 (HLA-DRB1*04:01): 4 µM
CC(C)C[C@H](NC(=O)[C@@H]1CCCN1C(=O)[C@H](CC(N)=O)NC(=O)[C@H](CCCNC(=N)N)NC(=O)[C@H](Cc1ccccc1)NC(=O)[C@H](CC(N)=O)NC(=O)[C@H](CCCNC(=N)N)NC(=O)CNC(=O)[C@H](C)NC(=O)[C@H](Cc1ccccc1)NC(=O)[C@H](CCCCN)NC(=O)[C@H](C)NC(=O)[C@@H](N)CCCCN)C(=O)N[C@@H](C)C(=O)N[C@@H](CCCCN)C(=O)O [peptide 420] (H-KAKFAGRNFRNPLAK-OH)	25 µM	> 50 µM				IC50 (HLA-DRB1*04:01): > 50 µM
CC[C@H](C)[C@H](NC(=O)[C@H](CCCNC(=N)N)NC(=O)[C@@H](N)CCCCN)C(=O)N[C@@H](C)C(=O)N[C@@H](CCCCN)C(=O)N[C@@H](C)C(=O)N[C@H](C(=O)N[C@@H](CC(N)=O)C(=O)N[C@@H](CCC(=O)O)C(=O)N[C@@H](CCCCN)C(=O)N[C@@H](CO)C(=O)N[C@@H](CS)C(=O)N[C@@H](CC(N)=O)C(=O)N[C@@H](CS)C(=O)N[C@@H](CC(C)C)C(=O)O)C(C)C [peptide 326] (H-KRIAKAVNEKSCNCL-OH)	0.7 µM	> 50 µM				
CC[C@H](C)[C@H](NC(=O)[C@H](CCCNC(=N)N)NC(=O)[C@H](CCSC)NC(=O)[C@H](C)NC(=O)[C@H](CCC(=O)O)NC(=O)[C@H](CCCNC(=N)N)NC(=O)[C@H](Cc1ccccc1)NC(=O)[C@H](CC(N)=O)NC(=O)[C@H](C)NC(=O)[C@H](C)NC(=O)CNC(=O)[C@@H](NC(=O)[C@@H]1CCCN1C(=O)[C@@H](N)CC(C)C)C(C)C)C(=O)NCC(=O)O [compound 171] (H-LPVGAANFREAMRIG-OH; N-terminus and C-terminus assumed)	> 50 µM	> 50 µM				
CC[C@H](C)[C@H](N)C(=O)N[C@@H](Cc1ccccc1)C(=O)N[C@@H](CC(=O)O)C(=O)N[C@@H](CO)C(=O)N[C@@H](CCCNC(N)=O)C(=O)NCC(=O)N[C@@H](CC(N)=O)C(=O)N1CCC[C@H]1C(=O)N[C@H](C(=O)N[C@H](C(=O)N[C@@H](CCC(=O)O)C(=O)N[C@@H](CC(=O)O)C(=O)N[C@H](C(=O)N[C@@H](CC(C)C)C(=O)N[C@@H](Cc1ccccc1)C(=O)O)C(C)C)C(C)C)[C@@H](C)O [cit11] (H-IFDS[Cit]GNPTVEDVLF-OH)						IC50 (HLA-DRB1*04:04): 1.7 µM; IC50 (HLA-DRB1*01:01): 25 µM
CC[C@H](C)[C@H](NC(=O)[C@H](Cc1c[nH]cn1)NC(=O)[C@H](CCC(=O)O)NC(=O)[C@@H](NC(=O)[C@H](C)NC(=O)[C@H](CCCCN)NC(=O)[C@H](CO)NC(=O)[C@@H](NC(=O)CNC(=O)[C@H](CCCCN)NC(=O)CNC(=O)[C@H](CCSC)NC(=O)[C@H](Cc1ccc(O)cc1)NC(=O)[C@@H](N)CCCNC(=N)N)C(C)C)C(C)C)C(=O)N[C@@H](CC(N)=O)C(=O)O [compound 56] (H-RYMGKGVSKAVEHIN-OH; N-terminus and C-terminus assumed)	> 50 µM	> 50 µM				
CC[C@H](C)[C@H](N)C(=O)N[C@@H](Cc1ccccc1)C(=O)N[C@@H](CC(=O)O)C(=O)N[C@@H](CO)C(=O)N[C@@H](CCCNC(=N)N)C(=O)NCC(=O)N[C@@H](CC(N)=O)C(=O)N1CCC[C@H]1C(=O)N[C@H](C(=O)N[C@H](C(=O)N[C@@H](CCC(=O)O)C(=O)N[C@@H](CC(=O)O)C(=O)N[C@H](C(=O)N[C@@H](CC(C)C)C(=O)N[C@@H](Cc1ccccc1)C(=O)O)C(C)C)C(C)C)[C@@H](C)O [peptide 11] (H-IFDSRGNPTVEDVLF-OH; N-terminus and C-terminus assumed)	> 50 µM	> 50 µM				
TSKGLFRAAVPSGAS [α-enolase peptide 26 (residues 26–40), native]			1.4 µM	4 µM	0.5 µM	
VIGMDVAASEFF[Cit]SG [α-enolase peptide Cit241 (residues 241–255), citrullinated]			42 µM	2.5 µM	0.2 µM	
LPVGAANF[Cit]EAM[Cit]IG [α-enolase peptide Cit171 (residues 171–185), citrullinated]					> 50 µM	
KAKFAGRNFRNPLAK [α-enolase peptide 420 (residues 420–434), native]			> 50 µM	> 50 µM	25 µM	
KAKFAG[Cit]NF[Cit]NPLAK [α-enolase peptide Cit420 (residues 420–434), citrullinated]			> 50 µM	> 50 µM	28 µM	
KRIAKAVNEKSCNCL [α-enolase peptide 326 (residues 326–340), native]			> 50 µM	1.7 µM	0.7 µM	
K[Cit]IAKAVNEKSCNCL (cysteine pairing not given here) [α-enolase peptide Cit326 (residues 326–340), citrullinated]			> 50 µM	1.9 µM	0.7 µM	
MSILKIHAREIFDSR [α-enolase peptide 1 (residues 1–15), native]			3.5 µM		> 50 µM	
MSILKIHA[Cit]EIFDS[Cit] [α-enolase peptide Cit1 (residues 1–15), citrullinated]			> 50 µM		> 50 µM	
TSKGLF[Cit]AAVPSGAS [α-enolase peptide Cit26 (residues 26–40), citrullinated]			1.9 µM	1.5 µM	0.5 µM	
VIGMDVAASEFFRSG [α-enolase peptide 241 (residues 241–255), native]			35 µM	2 µM	0.5 µM	
